Data reported in patent publication US20240150402.

B1: Human tPA (protein)
chain: SYQVICRDEKTQMIYQQHQSWLRPVLRSNRVEYCWCNSGRAQCHSVPVKSCSEPRCFNGGTCQQALYFSDFVCQCPEGFAGKCCEIDTRATCYEDQGISYRGTWSTAESGAECTNWNSSALAQKPYSGRRPDAIRLGLGNHNYCRNPDRDSKPWCYVFKAGKYSSEFCSTPACSEGNSDCYFGNGSAYRGTHSLTESGASCLPWNSMILIGKVYTAQNPSAQALGLGKHNYCRNPDGDAKPWCHVLKNRRLTWEYCDVPSCSTCGLRQYSQPQFRIKGGLFADIASHPWQAAIFAKHRRSPGERFLCGGILISSCWILSAAHCFQERFPPHHLTVILGRTYRVVPGEEEQKFEVEKYIVHKEFDDDTYDNDIALLQLKSDSSRCAQESSVVRTVCLPPADLQLPDWTECELSGYGKHEALSPFYSERLKEAHVRLYPSSRCTSQHLLNRTVTDNMLCAGDTRSGGPQANLHDACQGDSGGPLVCLNDGRMTLVGIISWGLGCGQKDVPGVYTKVTNYLDWIRDNMRP
B2: Human plasmin (protein)
chain: KVYLSECKTGNGKNYRGTMSKTKNGITCQKWSSTSPHRPRFSPATHPSEGLEENYCRNPDNDPQGPWCYTTDPEKRYDYCDILECEEECMHCSGENYDGKISKTMSGLECQAWDSQSPHAHGYIPSKFPNKNLKKNYCRNPDRELRPWCFTTDPNKRWELCDIPRCTTPPPSSGPTYQCLKGTGENYRGNVAVTVSGHTCQHWSAQTPHTHNRTPENFPCKNLDENYCRNPDGKRAPWCHTTNSQVRWEYCKIPSCDSSPVSTEQLAPTAPPELTPVVQDCYHGDGQSYRGTSSTTTTGKKCQSWSSMTPHRHQKTPENYPNAGLTMNYCRNPDADKGPWCFTTDPSVRWEYCNLKKCSGTEASVVAPPPVVLLPDVETPSEEDCMFGNGKGYRGKRATTVTGTPCQDWAAQEPHRHSIFTPETNPRAGLEKNYCRNPDGDVGGPWCYTTNPRKLYDYCDVPQCAAPSFDCGKPQVEPKKCPGRVVGGCVAHPHSWPWQVSLRTRFGMHFCGGTLISPEWVLTAAHCLEKSPRPSSYKVILGAHQEVNLEPHVQEIEVSRLFLEPTRKDIALLKLSSPAVITDKVIPACLPSPNYVVADRTECFITGWGETQGTFGAGLLKEAQLPVIENKVCNRYEFLNGRVQSTELCAGHLAGGTDSCQGDSGGPLVCFEKDKYILQGVTSWGLGCARPNKPGVYVRVSRFVTWIEGVMRNN
B3: Human matriptase-1 (protein)
chain: GSDEKDCDCGLRSFTRQARVVGGTDADEGEWPWQVSLHALGQGHICGASLISPNWLVSAAHCYIDDRGFRYSDPTQWTAFLGLHDQSQRSAPGVQERRLKRIISHPFFNDFTFDYDIALLELEKPAEYSSMVRPICLPDASHVFPAGKAIWVTGWGHTQYGGTGALILQKGEIRVINQTTCENLLPQQITPRMMCVGFLSGGVDSCQGDSGGPLSSVEADGRIFQAGVVSWGDGCAQRNKPGVYTRLPLFRDWIKENTGV

Legend:
[1] = target: Final pools of substrates selected with recombinant human matriptase-1
[2] = target: activatable antibodies comprising substrates selected for cleavage by uPA and matriptase (7 substrates tested), having the 3954 mask and C225v5 variant of cetuximab
[3] = target: activatable antibodies comprising substrates selected for cleavage by matriptase (5 substrates tested), having the 3954 mask and C225v5 variant of cetuximab

Protein	cleavage (flow cytometry of displayed substrate pools) [1]	cleavage (flow cytometry of displayed substrate pool) (pool SMP17)	kcat/KM [2]	kcat/KM [3]
B1	but not by tPA or plasmin	resistance to tPA		
B2	but not by tPA or plasmin			
B3	The pools were cleaved by matriptase-1		from about 3,000 to 100,000 M^-1s^-1 for matriptase (7 substrates tested)	kcat/KM values ranging from about 6,500 to 100,000 M^-1s^-1 for matriptase (5 substrates tested)
